# Measured values reported in patent US20020037582A1 (published 2002).
# T1: Gal4 DNA-BD-Grb14 fusion (full length Grb14, GRB14/pAS2.1)
# T1 chain: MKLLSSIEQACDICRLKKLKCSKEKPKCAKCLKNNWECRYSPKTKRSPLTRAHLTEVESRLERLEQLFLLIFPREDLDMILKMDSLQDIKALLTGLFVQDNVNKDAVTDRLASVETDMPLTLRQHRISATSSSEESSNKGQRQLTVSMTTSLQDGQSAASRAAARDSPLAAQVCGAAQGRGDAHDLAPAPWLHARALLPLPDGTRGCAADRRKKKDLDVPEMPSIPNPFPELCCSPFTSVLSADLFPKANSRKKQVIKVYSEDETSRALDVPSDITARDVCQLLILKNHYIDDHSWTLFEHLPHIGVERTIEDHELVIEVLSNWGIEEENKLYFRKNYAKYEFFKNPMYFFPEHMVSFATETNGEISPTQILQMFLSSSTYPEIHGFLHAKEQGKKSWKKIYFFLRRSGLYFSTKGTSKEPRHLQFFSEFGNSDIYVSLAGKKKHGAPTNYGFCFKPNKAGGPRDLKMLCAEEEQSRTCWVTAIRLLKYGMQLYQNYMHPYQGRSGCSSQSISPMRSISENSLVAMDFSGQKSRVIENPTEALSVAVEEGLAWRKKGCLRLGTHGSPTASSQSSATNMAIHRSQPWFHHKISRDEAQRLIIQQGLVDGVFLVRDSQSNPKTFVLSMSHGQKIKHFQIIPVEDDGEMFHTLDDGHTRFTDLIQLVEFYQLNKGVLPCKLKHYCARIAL
# B1: original 2.2412 cDNA clone in pACT-2 (nucleotides 694-2664 of FIG. 1, polypeptide of 657 amino acids) (other, not shown: large carriers)
# chain: ERLAYEFKGHSLLQAAREADVTRIKKHLSLEMVNFKHPQTHETALHCAAASPYPKRKQICELLLRKGANINEKTKEFLTPLHVASEKAHNDVVEVVVKHEAKVNALDNLGQTSLHRAAYCGHLQTCRLLLSYGCDPNIISLQGFTALQMGNENVQQLLQEGISLGNSEADRQLLEAAKAGDVETVKKLCTVQSVNCRDIEGRQSTPLHFAAGYNRVSVVEYLLQHGADVHAKDKGGLVPLHNACSYGHYEVAELLVKHGAVVNVADLWKFTPLHEAAAKGKYEICKLLLQHGADPTKKNRDGNTPLDLVKDGDTDIQDLLRGDAALLDAAKKGCLARVKKLSSPDNVNCRDTQGRHSTPLHLAAGYNNLEVAEYLLQHGADVNAQDKGGLIPLHNAASYGHVDVAALLIKYNASLNATDKWAFTPLHEAAQKGRTQLCALLLAHGADPTLKNQEGQTPLDLVSADDVSALLTAAMPPSALPSCYKPQVLNGVRSPGATADALSSGPSSPSSLSAASSLDNLSGSFSELSSVVSSSGTEGASSLEKKEVPGVDFSITQFVRNLGLEHLMDIFEREQITLDVLVEMGHKELKEIGINAYGHRHKLIKGVERLISGQQGLNPYLTLNTSGSGTILIDLSPDDKEFQSVEEEMQSTVREHR
# Tests used:
# [1] = molecular target: Gal4 DNA-BD-Grb14 fusion (full length Grb14, GRB14/pAS2.1) (S. cerevisiae) (UniProt P04386); assay: cell-based or functional assay
# [2] = molecular target: B1; assay: yeast two hybrid, liquid- or filter-based beta-galactosidase assays
# Excerpt: (§1) These fragments spanned the following regions: N-terminus (“N”. amino acids 1-110), the central region (“C”) encompassing the mig10 homology and the “between PH and SH2” (BPS) domain (amino acids 110-437) and the N-terminal and central regions (“N+C”, amino acids 1-437). These plasmids were individually transformed into the yeast strain Y190 (MATα, ura3-52, his3-200, ade2-101, lys2-801, trp1-901, leu2-3, 112, gal4Δ, gal80Δ, cyh^r2, LYS2::GAL1UAS-HIS3TATA-HIS3, URA3::GAL1UAS-GAL1TATA-lacZ) and expression of the appropriately sized Gal4 DNA-BD fusion proteins confirmed by Western blotting.
# [3] = molecular target: Gal4 DNA-BD-Grb14 fusion (full length Grb14, GRB14/pAS2.1) (S. cerevisiae, UniProt P04386 1-147; Q14449 1-540); assay: cell-based or functional assay
# [4] = molecular target: T1, Gal4 DNA-BD-Grb14 fusion (full length …)
# [5] = molecular target: B1; assay: yeast two hybrid in strain Y190, liquid- or filter-based beta-galactosidase assays
# Excerpt: as §1
molecule,measurement,setting,value
Proteosome cDNA clone in pACT2 (from UniProt P04386 768-881),"Mean RLU (Liquid assay), beta-galactosidase activity",[1],388 RLU
Somatostatin receptor cDNA clone in pACT2,"Mean RLU (Liquid assay), beta-galactosidase activity",[1],1450 RLU
"Gal4 DNA-BD fusion of the Grb14 central region (amino acids 110-437) in pAS2.1 (other, UniProt P04386 1-147, looked up) MKLLSSIEQACDICRLKKLKCSKEKPKCAKCLKNNWECRYSPKTKRSPLTRAHLTEVESRLERLEQLFLLIFPREDLDMILKMDSLQDIKALLTGLFVQDNVNKDAVTDRLASVETDMPLTLRQHRISATSSSEESSNKGQRQLTVSIKVYSEDETSRALDVPSDITARDVCQLLILKNHYIDDHSWTLFEHLPHIGVERTIEDHELVIEVLSNWGIEEENKLYFRKNYAKYEFFKNPMYFFPEHMVSFATETNGEISPTQILQMFLSSSTYPEIHGFLHAKEQGKKSWKKIYFFLRRSGLYFSTKGTSKEPRHLQFFSEFGNSDIYVSLAGKKKHGAPTNYGFCFKPNKAGGPRDLKMLCAEEEQSRTCWVTAIRLLKYGMQLYQNYMHPYQGRSGCSSQSISPMRSISENSLVAMDFSGQKSRVIENPTEALSVAVEEGLAWRKKGCLRLGTHGSPTASSQSSATNMAIHRSQ",binding result,[2],no binding
"Nedd4 partial cDNA clone in pACT2 (CaLB domain together with the first 22 amino acids of the first WW domain) (other, human, UniProt P46934-4 1-212, looked up, not shown: large carriers) MATCAVEVFGLLEDEENSRIVRVRVIAGIGLAKKDILGASDPYVRVTLYDPMNGVLTSVQTKTIKKSLNPKWNEEILFRVHPQQHRLLFEVFDENRLTRDDFLGQVDVPLYPLPTENPRLERPYTFKDFVLHPRSHKSRVKGYLRLKMTYLPKTSGSEDDNAEQAEELEPGWVVLDQPDAACHLQQQQEPSPLPPGWEERQDILGRTYYVNH","Mean RLU (Liquid assay), beta-galactosidase activity",[3],2.86e+06 RLU
B1,"Mean RLU (Liquid assay), beta-galactosidase activity",[3],5.18e+06 RLU
"Htk partial cDNA clone in pACT2 (intracellular region and part of the extracellular domain) (receptor, human, UniProt P54760 436-987, looked up, not shown: large carriers) AVSDIRVTRSSPSSLSLAWAVPRAPSGAVLDYEVKYHEKGAEGPSSVRFLKTSENRAELRGLKRGASYLVQVRARSEAGYGPFGQEHHSQTQLDESEGWREQLALIAGTAVVGVVLVLVVIVVAVLCLRKQSNGREAEYSDKHGQYLIGHGTKVYIDPFTYEDPNEAVREFAKEIDVSYVKIEEVIGAGEFGEVCRGRLKAPGKKESCVAIKTLKGGYTERQRREFLSEASIMGQFEHPNIIRLEGVVTNSMPVMILTEFMENGALDSFLRLNDGQFTVIQLVGMLRGIASGMRYLAEMSYVHRDLAARNILVNSNLVCKVSDFGLSRFLEENSSDPTYTSSLGGKIPIRWTAPEAIAFRKFTSASDAWSYGIVMWEVMSFGERPYWDMSNQDVINAIEQDYRLPPPPDCPTSLHQLMLDCWQKDRNARPRFPQVVSALDKMIRNPASLKIVARENGGASHPLLDQRQPHYSAFGSVGEWLRAIKMGRYEESFAAAGFGSFELVSQISAEDLLRIGVTLAGHQKKILASVQHMKSQAKPGTPGGTGGPAPQY","Mean RLU (Liquid assay), beta-galactosidase activity",[3],186000 RLU
L-arginine:glycine amidinotransferase cDNA clone in pACT2 (protein) ASSRNSCAADDKATEPLPKDCPVSSYNEWDPLEEVIVGRAENACVPPFTIEVKANTYEKYWPFYQKQGGHYFPKDHLKKAVAEIEEMCNILKTEGVTVRRPDPIDWSLKYKTPDFESTGLYSAMPRDILIVVGNEIIEAPMAWRSRFFEYRAYRSIIKDYFHRGAKWTTAPKPTMADELYNQDYPIHSVEDRHKLAAQGKFVTTEFEPCFDAADFIRAGRDIFAQRSQVTNYLGIEWMRRHLAPDYRVHIISFKDPNPMHIDATFNIIGPGIVLSNPDRPCHQIDLFKKAGWTIITPPTPIIPDDHPLWMSSKWLSMNVLMLDEKRVMVDANEVPIQKMFEKLGITTIKVNIRNANSLGGGFHCWTCDVRRRGTLQSYLD,"Colour intensity (Filter assay), beta-galactosidase",[4],+/-
same,"Mean RLU (Liquid assay), beta-galactosidase activity",[4],861 RLU
"Gal4 DNA-BD fusion of the Grb14 N-terminus (amino acids 1-110) in pAS2.1 (other, UniProt P04386 1-147, looked up) MKLLSSIEQACDICRLKKLKCSKEKPKCAKCLKNNWECRYSPKTKRSPLTRAHLTEVESRLERLEQLFLLIFPREDLDMILKMDSLQDIKALLTGLFVQDNVNKDAVTDRLASVETDMPLTLRQHRISATSSSEESSNKGQRQLTVSMTTSLQDGQSAASRAAARDSPLAAQVCGAAQGRGDAHDLAPAPWLHARALLPLPDGTRGCAADRRKKKDLDVPEMPSIPNPFPELCCSPFTSVLSADLFPKANSRKKQVI",binding result,[5],binds
